Values joined by “and” are separate entries in the source; they are usually repeats but may differ in a detail not shown here. Identical values can stand only once.
T1: recombinant catalytic domain of human LOX (169-417) (human, UniProt P28300 169-417)
T1 construct: also called LOX-catalytic domain; recombinant LOX
T1 sequence: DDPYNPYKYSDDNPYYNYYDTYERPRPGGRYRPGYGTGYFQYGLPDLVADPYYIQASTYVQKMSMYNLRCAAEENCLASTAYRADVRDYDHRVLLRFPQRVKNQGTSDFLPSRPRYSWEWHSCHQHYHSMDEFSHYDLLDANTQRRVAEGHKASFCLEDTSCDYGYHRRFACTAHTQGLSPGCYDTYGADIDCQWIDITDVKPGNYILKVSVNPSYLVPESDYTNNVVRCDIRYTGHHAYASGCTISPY


Tests used:
[1] = target: T2, recombinant HSP70 (UniProt P0DMV8 1-641, limits assumed); assay: ELISA, plate coated with recombinant HSP70, detection with anti-human peroxidase antibody
T2 construct: Purified on a HisTrap column; also called heat shock protein 70
Description: (§1) ELISA binding assay: A ninety-six-well plate (Nunc) was coated with LOX-catalytic domain, HSP70 or BSA at 10 μg/ml. After blocking with 2% BSA in PBS, the plate was incubated with the antibodies for 1 h at 37° C. Bound antibodies were detected by peroxidase-conjugated antibody goat anti-human (Jackson ImmunoResearch). EC₅₀ was calculated with GraphPad Prism from […] curve fitting analysis.

[2] = target: T1, recombinant catalytic domain of human …; assay: ELISA, plate coated with LOX catalytic domain, detection with anti-human peroxidase antibody
Description: as §1

[3] = target: T1, recombinant catalytic domain of human …; assay: binding affinity against LOX; ELISA according to paragraph 88
[4] = target: T1, recombinant catalytic domain of human …; assay: dissociation constant against LOX; microscale thermophoresis according to paragraph 89

T2 sequence (P0DMV8 whole entry): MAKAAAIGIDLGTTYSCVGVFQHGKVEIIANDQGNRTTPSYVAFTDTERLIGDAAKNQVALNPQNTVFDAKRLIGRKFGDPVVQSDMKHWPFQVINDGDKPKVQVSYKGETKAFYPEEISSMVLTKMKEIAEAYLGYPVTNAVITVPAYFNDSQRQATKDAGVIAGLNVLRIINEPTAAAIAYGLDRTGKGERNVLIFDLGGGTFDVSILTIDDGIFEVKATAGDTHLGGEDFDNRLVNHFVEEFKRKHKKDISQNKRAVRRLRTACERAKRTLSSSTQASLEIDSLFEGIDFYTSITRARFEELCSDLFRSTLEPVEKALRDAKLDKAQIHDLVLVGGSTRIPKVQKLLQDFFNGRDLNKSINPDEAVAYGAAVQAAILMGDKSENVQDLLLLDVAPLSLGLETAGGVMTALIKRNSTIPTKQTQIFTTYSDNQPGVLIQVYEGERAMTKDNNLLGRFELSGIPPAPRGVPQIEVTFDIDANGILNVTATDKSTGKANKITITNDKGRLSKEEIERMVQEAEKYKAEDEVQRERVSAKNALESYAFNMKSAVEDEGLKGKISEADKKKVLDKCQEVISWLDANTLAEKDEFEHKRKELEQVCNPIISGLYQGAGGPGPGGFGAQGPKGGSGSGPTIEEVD

Row | EC50 [1] [nM] | EC50 [2] [nM] | EC50 [3] | Kd [4] [nM] | Binder
1 | 41 | 43 |  |  | AS1 (glycosylated LOX-PP fused to human IgG1 Fc) (Fc fusion, N-glycosylated on N81, N97 and N144 (precursor numbering; positions 60, 76 and 123 of the piece). Disulfide-linked dimer through the Fc hinge., also called AS1 decoy; not shown: Human IgG1 Fc (hinge-CH2-CH3), its orientation relative to LOX-PP and any linker) APPAAGQQQPPREPPAAPGAWRQQIQWENNGQVFSLLSLGSQYQPQRRRDPGAAVPGAANASAQQPRTPILLIRDNRTAAARTRTAGSSGVTAGRPRPTARHWFQAGYSTSRAREAGASRAENQTAPGEVPALSNLRPPSRVDGMVG
2 |  |  | 40 nM and 43 nM | 32 | Fc-LPD (Fc fusion) APPAAGQQQPPREPPAAPGAWRQQIQWENNGQVFSLLSLGSQYQPQRRRDPGAAVPGAANASAQQPRTPILLIRDNRTAAARTRTAGSSGVTAGRPRPTARHWFQAGYSTSRAREAGASRAENQTAPGEVPALSNLRPPSRVDGMVG

Source: patent US20240398906A1 (YEDA RESEARCH AND DEVELOPMENT, published 2024)
